The PETadex activity labels

B1: unnamed (protein)
chain: MTPTTHDDIDSHPSRTPAMRRAWPAFIAGTLLSLGAQAQVAIFKEDFQGGIGQFTSAGAASVSNGRVVMKGCLTCADGSVTSKEISTVGFDALRLSYDRTIVGLDAGEYGEVAYAVDGGEWTMLWGRLDNRSGRGTIDLPAAAANQKSLRLRYRIHASDSAETFTLDNVLLEGTPRSVTHPNPYAKGPDPTASALEAKAGPFTYAATVVPSGKASGYGGGTLYHPDKEVGPFAAIVIVPGYTATQESVKWWGPLLASHGFVVMVIDTLDNRDLPGSRATQLMAAVSQVKGFNTTQGHAIQGKVDPARVGIMGWSFGGGGTLLAAQAHPELKAAIPMAPKTWGETLKTADIKVPTLIIGCQADTTAPVKDWAIPFHEGIPGSVRKAYLEIAQGGHGCVSAQFNKKAADLAMMGKYGVSWMKRFLDEDTRYSPYLCGAPHQADVNGKTVVSAYRENCPY
B2: unnamed (protein)
chain: MHTKNYRNDARTVPKRSSLAKSLLAGGILLFSAAANADIIFQEDFNSSLGQFTASGSVTTGTYGARMAAAYGSGDAFITSAPISTVGFTNISLTWTRTTSGLDSGESGIAMFSTNGSTWTTIESVQSASGVRTVALPAGAAGQSALRLRFEVDGSLSSETYTVDTIRLEGTGSGGGCEPNCEPPPTGNPYERGPAPTTSSLEASTGPFQVATTTVSSTTADGYGSGTIYHPTGVTGPFAAIAICPGYTATQTSISQWGPRLASHGFVVITINTNSTSDQPPSRATQLMAALDQLVTFSNTSGHAIFGKVDGTRRGVMGHSMGGGGSLIAARDNPSLKAAIPMAPWYSSSTNFSAIRTPTMIVACESDSIARVSSHALPFYNSIPSTTPKAFAERNNGSHNCPINNNDWWPTLNKYGVAWMKRFLDNDTRYSPWLCGAPHEAVVDGTTYSRYLSNCPY
B3: unnamed (protein)
chain: MAKFTGAAQFLKASMAIGAIVLSAAASAQTNPYQRGPAPTDSSLAADRGPLAYSSFTVSRPSGYRAGTVYYPTNAGGTVGAIAVVPGFTAYQSDINWWGPRLASWGFVVITIDTNSTLDQPSSRSRQQLAALDQVATLSRTSGSPIYNKVDTSRMGVMGWSMGGGGSLISTQNRPSLKASIPFAPWNGTSSFSSVTTPTFIIACQSDLIAPVASHANDFYNSLSRPPKMFLEIRGGSHYCANSSNGNKDVLGAKGVAWMKRY
B4: unnamed (protein)
chain: MPPHAARPGPAQNRRGRAMAVITPRRERSSLLSRALRFTAAAATALVTAVSLAAPAHAANPYERGPNPTDALLEARSGPFSVSEERASRFGADGFGGGTIYYPRENNTYGAVAISPGYTGTQASVAWLGERIASHGFVVITIDTNTTLDQPDSRARQLNAALDYMINDASSAVRSRIDSSRLAVMGHSMGGGGSLRLASQRPDLKAAIPLTPWHLNKNWSSVRVPTLIIGADLDTIAPVLTHARPFYNSLPTSISKAYLELDGATHFAPNIPNKIIGKYSVAWLKRFVDNDTRYTQFLCPGPRDGLFGEVEEYRSTCPF
B5: unnamed (protein)
chain: MVGYLEAVANYFPDTKWANYTTGYDGGTGGQTGFYNVMLQNSPLGALSWWNASCEFHDVMVEQAADTAARVPSNYRYYIGAGSAHTMYGSDKVYSDQSGGESQTILDWVNDMLAFDPAAADPGAPSWQSVECDDCEIVLPGDPLPRSLPTAPFALDIAGNPVIRCPPFPRGPDPTPAALEADLGPFPVRSYRPFFTPGFGAGTIWYPANPNPGPFAVIAVSPGFRAPESTMAWVGPRLASNGFIVITISTQSPFDNPTSRAKQLMAALRLVAAEGRRPSPIIGRVDGDRTGLIGHSMGGGGSLIAARDNPSVDAIIPLAPWNSPAKDFSAVEAASLIVACERDEIARVSQHAKPFYDSIPAADVNKAFLEFRGADHLCVMVGNDHYATLGKYIVAWMKAFLDSDTRYDEYLCG
B6: unnamed (protein)
chain: MQYASTPTLRHVAQFAKASVLAATVLLASVAHAQFEKGPNPTVSALERAGTFATRTTTVSSLSASGFGGGTIYYPTAAGSYGVIAISPGFTARQSSISWMGTRIASHGFVVITIDTNTTSDQPDSRARQLKAALDKVVSLSTGRTNVLYGKVDASRLAVAGHSMGGGGSLAAARDYPTLKAAVPLAPWHTTKSFSSVRVPTLIISGENDSVAGNSSHSIPFYNSLPSSTPKGYLELNAEDHFFPQDSGEYGLVGKYMISWFKRFVDSDTRYSPFLCGAEHQAQVRVTSRVSDSRTNCPY
B7: unnamed (protein)
chain: MPGYQGTQQNLQWLAPRLASWGFTVINLGTNTLTDDPDSRATQIRNAGTQLLSFSATAGNPIANKVRSVTASTGLGVSGHSMGGGGTMVVLRDDSRFTAGAPLAPYHPSGAFSGVTKPTFFLVCASDVAAPGNTYAKPWYNSMASAEKLYMSVPGDHLCPMTGYGDKAKQGKYLVSWFSRWLKGDTSYSQFLCTDSIRNVDKNNTSIVTEWMDTCPY
B8: unnamed (protein)
chain: MQKIRSIGRAGRARWGRAALTAVALAAALSAAQAQTVVGPDPTAAALEAARGPFAVSTTTIKAPRGFRAGTVFFPASVTTPMAAVAVVPGFTARQSSINWLGPRLASWGFVVVTIDTNSTSDQPAARATQLMAALKQVVDESKVAGSPFFGKVDGARLGVMGHSMGGGGSLIAARNNPTLKAAIPMAPWNLGRNFSGVSVPTLVMACQNDAVAPVAQHASPFFESIPATVDKAFLEVRGGSHLCPTTASVANQPLLGKYSVAWMKRFMDNDTRFSAFLCDAPHQADLAGNKISAYRENCPY
B9: unnamed (protein)
chain: MKFNLSEKWLIALLASSLSFNALAVGGGGDDDDPPSCETDCGYERGPDPTASSLEADDGPYNVSTINVSSFVSGFGGGTIHYPRGTSGTMGAIAVVPGFVSSESDIIWWGSRIASHGFVVITIDTNSGFDQPDSRANQLSAALDYVIDESDSSSSAISGMVDSSRLGVMGWSMGGGGSLKLATDRNLMAIIPQAPYYSGFNDFDEITTPTLIIACENDAVAPVSSHASSFYYDIPSSTDKAFLEINNGSHYCGNTGNANEDILGKYGVAWMKRFIDLDQRYDQFLCGPNHDAPYAISEYRDTCN
B10: unnamed (protein)
chain: MKTSNSRRRRLAVAAGALLLAAAAHAQTNPYQKGPDPTSASLEATAGPFAVSTTSVSSSASGFGGGTIYYPTTAGSYGAIAISPGFTATQSSIAWLGRRLASHGFVVITIDTNSTLDQPASRATQLMAALNYVVNSSSSTVRSRVDANRLGVAGHSMGGGGTLIAARDNPTLKAAVPLTPWNTTKNFSSVTVPTLIIGAENDTVAPVSSHAIPFYNSLPSSTDKAYAELNGASHFAPNSSNTPIGKYSVAWMKRFVDNDTRYSPFLCGAPHTAYATSSAVSDYRSTCPY
B11: unnamed (protein)
chain: MKNAPIRSVLATCLVAAAASALAQTTAPTSASLNASAGPLSVSTASVTAPRGFGGGTIYYPTTQARYGVIAISPGFTATQISIAWLGRRIATHGFVVITLNTLTTLDQPDSRANQLMAALNHVINSSSSAVKARIDTSRLAVAGHSMGGGGALIAARDNPTLKASYPLTPWNINSAFTTVRVPTMIVGADGDTIAPVGTHARPFYAALPGATSKAYGELNGATHFSPNSTNTPIGRYGVAWMKRFLDGDTRYSTFLCGTEHTRYATALVFDRYNQNCPY
B12: unnamed (protein)
chain: MVVIRTTNTTPTLQVTLMTTISVRKSALFVFAATAVLFSMSAFSFNPPTEPEPDPGPSPCQTDCGFTRGPNPTASYLEASTGPYAVRTTDVSRYVSGFGGGTIHYPAGTTGEMGAIAIVPGFFASESSIQWWGPRLASHGFVVITISTNSVFDQPGSRSAQLENALDYVISQSNSPTSGILGMVDSSRVGAMGWSMGGGGTLRLASSERLSAAIPLAPWNTGSNNFDQIDTPTLIFACENDGTAPVSQHASPFYNRIPGATAKAYFEINNGQHSCANGGGSNGGLLGKYGVSWMKLHIDKDDRYNRFLCGPNHAANSAISEYRGTCPY
B13: unnamed (protein)
chain: MFNQIGKKSALSLMAAGSLMFSATALAIGGGGSGGGNNGGGGGCEADCGYERGPDPSVSLLEASTGPFSVRTSNVSSSVRGFGGGTIHYPTNTTGTMAAIVVIPGFVSPESSIAWWGPKLASHGFVVMTIGTNSGFDQPASRASQLNNALDYLIEQNGSSRSPINGMIDTDRLGVMGWSMGGGGTLRVATEGRVSAAIPLAPWDSSSSQFRSIDTPTLIFACENDSTAPVRSHADPFYDAIPDSTAKAFVELDGGGHTCANGSSGFGGSYNDVLSRLGVSWMKLHLDKDQRYNQFVCGPNHESDRSISEYRGTCPY
B14: unnamed (protein)
chain: MFIMIKKSELAKAIIVTGALVFSIPTLAEVTLSETTVSSIKSEATVSSTKKALPATPSDCIADSKITAVALSDTRDNGPFSIRTKRISRQSAKGFGGGTIHYPTNASGCGLLGAIAVVPGYVSYENSIKWWGPRLASWGFVVITINTNSIYDDPDSRAAQLNAALDNMIADDTVGSMIDPKRLGAIGWSMGGGGALKLATERSTVRAIMPLAPYHDKSYGEVKTPTLVIACEDDRIAETKKYANAFYKNAIGPKMKVEVNNGSHFCPSYRFNEILLSKPGIAWMQRYINNDTRFDKFLCANENYSKSPRISAYDYKDCP

Substrate: BHET
Details: 120 h

Protein | plate clearing | plate clearing (part of the chain shown)
B1 | not clears the plate | 
B2 | clears the plate (z > 3 vs empty vector) | 
B3 | not clears the plate | 
B4 | not clears the plate | 
B5 | not clears the plate | 
B6 | not clears the plate | 
B7 | not clears the plate | 
B8 | clears the plate (z > 3 vs empty vector) | 
B9 |  | not clears the plate
B10 | not clears the plate | 
B11 | not clears the plate | 
B12 | not clears the plate | 
B13 | not clears the plate | 
B14 | not clears the plate | 
